The results in this text go back to patent US20230220104A1 (BRIGHTPATH BIOTHERAPEUTICS, published 2023).

Experiment [1] addresses T1, human CD73 on cells (H322, MDA-MB-231, HT-144, T cells, CD73-transfected HEK293T) (human, UniProt P21589 27-549).
T1 sequence (looked up): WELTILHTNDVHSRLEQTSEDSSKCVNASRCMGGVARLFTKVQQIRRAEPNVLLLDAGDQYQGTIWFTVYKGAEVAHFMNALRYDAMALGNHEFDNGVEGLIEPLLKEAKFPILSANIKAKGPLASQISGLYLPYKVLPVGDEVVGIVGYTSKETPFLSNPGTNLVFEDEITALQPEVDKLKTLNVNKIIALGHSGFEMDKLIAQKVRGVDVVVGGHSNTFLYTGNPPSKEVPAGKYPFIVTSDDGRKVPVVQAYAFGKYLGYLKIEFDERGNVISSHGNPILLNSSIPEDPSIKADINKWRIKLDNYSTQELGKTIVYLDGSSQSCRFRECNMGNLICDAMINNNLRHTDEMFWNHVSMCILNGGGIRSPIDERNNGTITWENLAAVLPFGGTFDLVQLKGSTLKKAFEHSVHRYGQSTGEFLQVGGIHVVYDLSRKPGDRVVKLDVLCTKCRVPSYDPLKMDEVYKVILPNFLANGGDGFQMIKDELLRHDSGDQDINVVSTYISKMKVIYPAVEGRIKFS
Kind of experiment: cell-based or functional assay.

Experiment [2] addresses T1, human CD73 on cells (H322, MDA-MB-231, …). Kind of experiment: cell-based or functional assay. This is another data set of the same source.
The target is the same in experiment [3]. Kind of experiment: flow cytometry on H322 cells (endogenous CD73), PE channel. The procedure: Analysis of the binding activity of each of the obtained humanized antibodies 002_6_h1 to 002_6_h8 to target expressing cells was carried out by FACS analysis using endogeneously CD73 expressing cells (human lung cancer cell line H322).
On the technique in general: Flow cytometry measures light scatter and fluorescence of single cells or particles in a stream.

Experiment [4] has the same target. Kind of experiment: cell-based or functional assay. This is another data set of the same source.
The target is the same in experiment [5]. The experiment can be described thus: cell-based or functional assay. The source holds these as a separate data set.
The target is the same in experiment [6]. The experiment can be described thus: cell-based or functional assay. This is another data set of the same source.

Read-outs that look alike come from different tables or passages of the source.

B1: 004_m antibody (antibody, V domains shown)
VH: QVQLQQPGAELVRPGTSVKLSCKASGYTFTGYWMNWLKQRPDQGLEWIGRIDPYDSETHYSQKFKDKAILTVHKSSSTAYIQLNSLTSEDSAVYYCTRSSPITTAPFDYWGRGTTLTVSS
VL: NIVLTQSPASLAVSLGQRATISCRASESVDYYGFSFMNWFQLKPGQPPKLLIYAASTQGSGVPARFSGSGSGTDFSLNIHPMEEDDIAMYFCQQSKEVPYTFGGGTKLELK
For B1, the “IC50 of AMP degradation suppressive function, MDA-MB-231 cells” value (“IC50 … MDA-MB-231 cells” for short) in experiment [1] came to 0.032 µg/mL. Also, the “IC50 of AMP degradation suppressive function (cell line of Table 7 not stated; H322 in FIG. 12)” value in experiment [2] is 0.013 µg/mL.

B2: 002_6_h1 (antibody, V domains shown)
VH: QVQLVQSGAEVKKPGASVKVSCKASGYTFTDSNMDWVRQAPGQRLEWMGDINPNNGGTIYNQKFKGRVTITRDTSASTAYMELSSLRSEDTAVYYCARTNWDYAMDYWGQGTLVTVSS
VL: DIQMTQSPSSLSASVGDRVTITCKASQDINSQLSWYQQKPGKAPKLLIYRANRLIDGVPSRFSGSGSGTDFTLTISSLQPEDFATYYCQQYDVFPRTFGQGTKLEIK
notes: Humanized antibody of 002_6_c; also called humanized antibody 002_6_h1
For B2, the binding result in experiment [3] is on record as “binds”.

B3: 002_6_h3 (antibody, V domains shown)
VH: QVQLLQSAAEVRKPGASVKVSCKASGYTFTDSNMDWVRQAPGQGLEWMGDINPNNGGTIYNQKFKGRVTMTTDTSRRTAYMELRSLRSDDTAVYYCARTNWDYAMDYWGQGTTVTVSS
VL: DIQMTQSPSFLSASVGDRVTITCKASQDINSQLSWYQQKPGKAPKLLIYRANRLIDGVPSRFSGSGSGTEFTLTISSLQPEDFATYYCQQYDVFPRTFGGGTKLEIK
notes: Humanized antibody of 002_6_c; also called humanized antibody 002_6_h3
As to B3, the binding result in experiment [3] was “binds”.

B4: 002_6_h6 (antibody, V domains shown)
VH: QVQMKESGAEVKKPGASVKVSCKASGYTFTDSNMDWVRQAPGQGLEWMGDINPNNGGTIYNQKFKGRVTMTIDTSTSTVYMELSSLRSEDTAVYYCARTNWDYAMDYWGQGTLVTVSS
VL: DIQVTQSPSFLSASVGDRVTITCKASQDINSQLSWYQQKPGKAPKTLIYRANRLIDGVPSRFSGSGSGTDFTLTISSLQYEDMATYYCLQYDVFPRTFGGGTKVEIK
notes: Humanized antibody of 002_6_c; also called humanized antibody 002_6_h6
In the case of B4, the binding result in experiment [3] is “binds”.

B5: 002_6_h5 (antibody, V domains shown)
VH: QVQLQESGAEVKKPGASVKVSCKASGYTFTDSNMDWVRQAPGQGLEWMGDINPNNGGTIYNQKFKGRVTMTRDTSTSTVYMELSSLRSEDTAVYYCARTNWDYAMDYWGQGTLVTVSS
VL: DIQVTQSPSFLSASVGDRVTITCKASQDINSQLSWYQQKPGKAPKLLIYRANRLIDGVPSRFSGSGSGTEFTLTISSLQPEDFATYYCQQYDVFPRTFGGGTKVEIK
notes: Humanized antibody of 002_6_c; also called humanized antibody 002_6_h5
Take B5: the binding result in experiment [3] is “binds”.

B6: 002_6_h2 (antibody, V domains shown)
VH: QVQMKQSGAEVKKPGASVKVSCKASGYTFTDSNMDWVRQAPGQRLEWMGDINPNNGGTIYNQKFKGRVTITIDTSASTAYMELSSLRSEDTAVYYCARTNWDYAMDYWGQGTLVTVSS
VL: DIQMTQSPSSMSASVGDRVTITCKASQDINSQLSWYQQKPGKAPKTLIYRANRLIDGVPSRFSGSGSGTDFTLTISSLQYEDMATYYCLQYDVFPRTFGQGTKLEIK
In the case of B6, in experiment [4], the “IC50 of AMP degradation suppressive function, H322 cells” value (from here on “IC50 … H322 cells”) worked out at 0.236 µg/mL.

B7: 003_m antibody (antibody, V domains shown)
VH: DVKLVESGGGLVQPGGSRKLSCAASGFTFSSFGMHWVRQAPEKGLEWVAYISSGSRTIYYADTVRGRFTISRDNSKNTLFLQLTSLRSEDTAIYYCASDFGSSSPNYFDYWGQGTTVTVSS
VL: not shown
In the case of B7, the “IC50 of AMP degradation suppressive function (cell line of Table 7 not stated; H322 in FIG. 12)” value in experiment [2] worked out at 0.088 µg/mL.

B8: 002_1_c antibody (antibody, V domains shown)
VH: QVQMKQSGPELVKPGASVKIPCKASGYTFTDCNMDWVKQSHGESLEWIGDINPNNGGTIYNQKFKGKVTLTIDKSSSTAYMELRSLTSEDTAVYYCARTNWDYAMDYWGQGTSVTVSS
VL: DIQMTQSPSSMYASLGERVTITCKASQDINSNLSWFQQKPGKSPKTLIYRANRLIDGVPSRFSGSGSGQDYSLTISSLEYEDMGIYYCLQYDVFPRTFGGGTKLELK
With B8, in experiment [5], the “IC50 … H322 cells” value was 0.042 µg/mL.

B9: 006_m antibody (antibody, V domains shown)
VH: QVQLQQPGAELVKPGVSVKLSCKASGYTFTSYWMHWVKQRPGQGPEWIGEINPSNARTNYNENFKSKATLTVDKSSTTAYMHFSRLTSEDSAVYYCARRGTSGNYFDFWGQGTTVTVSS
VL: DIQMTQSPSSMYASLGERVTITCKASQDINTYLSWFQQKPGKSPKTLIYRANRLVDGVPSRFSGSGSGEDYSLTISSLEYEDMGIYYCLQYDEFPYTFGGGTRLEIK
B9: the “IC50 … MDA-MB-231 cells” value in experiment [1] was determined as 0.032 µg/mL. The “IC50 of AMP degradation suppressive function (cell line of Table 7 not stated; H322 in FIG. 12)” value in experiment [2] was determined as 0.008 µg/mL.

B10: 007_m antibody (antibody, V domains shown)
VH: QVQLQQPGAELVRPGASVKLSCKASGYTFTSYWMNWVKQRPEQGLEWIGKIDPYDSETHYNQKFKDKAILTVDKSSSTAFMQLSSLTSEDSAVYYCARIRYGTFDYWGQGTTLTVSS
VL: DIVMTQSPSSMYASLGERVTITCKASQDINNYLSWFQQKPGKSPKTLIYRANILVDGVPSGFSGSGSGQDYSLTISSLEYEDMGIYYCLQYDEFPYTFGGGTRLEIK
As for B10, in experiment [1], the “IC50 … MDA-MB-231 cells” value turned out to be 0.041 µg/mL. Further, the “IC50 of AMP degradation suppressive function (cell line of Table 7 not stated; H322 in FIG. 12)” value in experiment [2] is 0.012 µg/mL.

B11: 002_3_c antibody (antibody, V domains shown)
VH: QVQMKQSGPELVKPGASVKIPCKASGYTFTDCNMDWVKQSHGESLEWIGDINPNNGGTIYNQKFKGKVTLTIDKSSSTAYMELRSLTSEDTAVYYCARTNWDYAMDYWGQGTSVTVSS
VL: DIQMTQSPSSMYASLGERVTITCKASQDINSQLSWFQQKPGKSPKTLIYRANRLIDGVPSRFSGSGSGQDYSLTISSLEYEDMGIYYCLQYDVFPRTFGGGTKLELK
On to B11, for which the “IC50 … H322 cells” value in experiment [5] was found to be 0.039 µg/mL.

B12: 002_4_c antibody (antibody, V domains shown)
VH: QVQMKQSGPELVKPGASVKIPCKASGYTFTDSNMDWVKQSHGESLEWIGDINPNNGGTIYNQKFKGKVTLTIDKSSSTAYMELRSLTSEDTAVYYCARTNWDYAMDYWGQGTSVTVSS
VL: DIQMTQSPSSMYASLGERVTITCKASQDINSNLSWFQQKPGKSPKTLIYRANRLIDGVPSRFSGSGSGQDYSLTISSLEYEDMGIYYCLQYDVFPRTFGGGTKLELK
On to B12, for which, in experiment [5], the “IC50 … H322 cells” value came to 0.038 µg/mL.

B13: 002_6_c antibody (antibody, V domains shown)
VH: QVQMKQSGPELVKPGASVKIPCKASGYTFTDSNMDWVKQSHGESLEWIGDINPNNGGTIYNQKFKGKVTLTIDKSSSTAYMELRSLTSEDTAVYYCARTNWDYAMDYWGQGTSVTVSS
VL: DIQMTQSPSSMYASLGERVTITCKASQDINSQLSWFQQKPGKSPKTLIYRANRLIDGVPSRFSGSGSGQDYSLTISSLEYEDMGIYYCLQYDVFPRTFGGGTKLELK
Consider B13, for which the entries for the “IC50 … H322 cells” value in experiment [5] and in experiment [4] were 0.042 µg/mL and 0.04 µg/mL, respectively. In addition, the “IC50 … MDA-MB-231 cells” value amounted to 0.04 µg/mL in experiment [1] and 0.023 µg/mL in experiment [6].

B14: 002_2_c antibody (antibody, V domains shown)
VH: QVQMKQSGPELVKPGASVKIPCKASGYTFTDCNMDWVKQSHGESLEWIGDINPNNGGTIYNQKFKGKVTLTIDKSSSTAYMELRSLTSEDTAVYYCARTNWDYAMDYWGQGTSVTVSS
VL: DIQMTQSPSSMYASLGERVTITCKASQDINSDLSWFQQKPGKSPKTLIYRANRLIDGVPSRFSGSGSGQDYSLTISSLEYEDMGIYYCLQYDVFPRTFGGGTKLELK
Consider B14, for which the “IC50 … H322 cells” value in experiment [5] was 0.077 µg/mL.

B15: 002_5_c antibody (antibody, V domains shown)
VH: QVQMKQSGPELVKPGASVKIPCKASGYTFTDSNMDWVKQSHGESLEWIGDINPNNGGTIYNQKFKGKVTLTIDKSSSTAYMELRSLTSEDTAVYYCARTNWDYAMDYWGQGTSVTVSS
VL: DIQMTQSPSSMYASLGERVTITCKASQDINSDLSWFQQKPGKSPKTLIYRANRLIDGVPSRFSGSGSGQDYSLTISSLEYEDMGIYYCLQYDVFPRTFGGGTKLELK
For the molecule B15, the “IC50 … H322 cells” value in experiment [5] came to 0.066 µg/mL.

B16: 008_m antibody (antibody, V domains shown)
VH: QVQLKQSGAELVKPGASVKLSCKASGYTFTSYWMHWVKQRPGQGPEWIGEINPSNGRTNYNEKFKNRATLTVDKSSSTAYMQLSRLTSEDSAVYYCARRGTSGNYFDYWGQGTTLTVSS
VL: DIQMTQSPSSMYASLGERVTITCKASQDINTYLSWFQQKPGKSPKTLIYRANRLVDGVPSRFSGSGSGEDYSLTISSLEYEDMGIYYCLQYDEFPYTFGGGTRLEIK
For B16, in experiment [1], the “IC50 … MDA-MB-231 cells” value was 0.031 µg/mL. In experiment [2], the “IC50 of AMP degradation suppressive function (cell line of Table 7 not stated; H322 in FIG. 12)” value turned out to be 0.006 µg/mL.
